The target of the assay is ShhN^1-198-HA (mouse) (UniProt Q62226). Kind of assay: anti-HA immunoprecipitation from HEK293T lysate, label-free quantitative mass spectrometry; 1 unique peptide; Control Group, IGF2 Group and Abundance Ratio not given.
Sequence of ShhN^1-198-HA (mouse) (Q62226 25-198): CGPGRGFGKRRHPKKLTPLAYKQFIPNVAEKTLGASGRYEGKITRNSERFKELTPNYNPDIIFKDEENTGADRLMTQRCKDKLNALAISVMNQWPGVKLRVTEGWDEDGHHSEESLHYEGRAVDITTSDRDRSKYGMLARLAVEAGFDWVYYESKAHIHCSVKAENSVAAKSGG
Take VPS51 (from UniProt Q9UID3): the abundance in The ShhN Group amounted to 45400.
For BHMT (from UniProt Q93088) (enzyme) the value was 2060; for GRIA1 (from UniProt P42261) (receptor), 19800; for PPIB (from UniProt P23284) (enzyme), 8940.

The values above are taken from patent US20250243243A1, “DISRUPTION OF SONIC HEDGEHOG-SURF4 INTERACTION FOR CANCER TREATMENT” (The Hong Kong University of Science and Technology, priority 2022, published 2025).
